Measured values: the supplement of paper PMC11908140

B1: library; numbered along this chain (parent)
chain: MRKPRAAVGSGHRKQAASQEGRQKHAKNNSQAKPSACDGLARQPEEVVLQASVSSYHLFRDVAEVTAFRGSLLSWYDQEKRDLPWRRRAEDEMDLDRRAYAVWVSEVMLQQTQVATVINYYTGWMQKWPTLQDLASASLEEVNQLWAGLGYYSRGRRLQEGARKVVEELGGHMPRTAETLQQLLPGVGRYTAGAIASIAFGQATGVVDGNVARVLCRVRAIGADPSSTLVSQQLWGLAQQLVDPARPGDFNQAAMELGATVCTPQRPLCSQCPVESLCRARQRVEQEQLLASGSLSGSPDVEECAPNTGQCHLCLPPSEPWDQTLGVVNFPRKASRKPPREESSATCVLEQPGALGAQILLVQRPNSGLLAGLWEFPSVTWEPSEQLQRKALLQELQRWAGPLPATHLRHLGEVVHTFSHIKLTYQVYGLALEGQTPVTTVPPGARWLTQEEFHTAAVSTAMKKVFRVYQGQQPGTCMGSKRSQVSSPCSRKKPRMGQQVLDNFFRSHISTDAHSLNSAAQ

Variants of: B1
Experiment: 8OG:A repair function score (normalized; synonymous = 0, nonsense = -1) (normalized log-likelihood score); higher = more repair activity (WT-like)
Settings: with 8OG:A DNA repair reporter (GFP) in HEK-293 MUTYH KO cells
Procedure: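 Saturation mutagenesis (NNN codon scan) of the MUTYH cDNA (521-aa nuclear isoform NM_001048174.1 / NP_001041639), stably expressed under doxycycline induction in HEK-293 MUTYH knockout cells. Cells were co-transfected with an 8OG:A-bearing GFP repair reporter plus mCherry and sorted 72 h later into GFP+ and GFP− bins, three replicates per tile. The Rosace log2 enrichment (GFP+ vs GFP−) was converted per tile to a normalized function score with synonymous variants centered at 0 and nonsense variants (codons 1-471) at -1; low-abundance variants were removed.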

Variant | 8OG:A repair function score
A194P | -1.06
S270Y | -0.036
A238H | -0.805
A238T | -0.413
G429S | -0.131
G429A | 0.031
G429K | -0.404
G429P | -1.12
E167V | -0.0209
P225C | -0.182
Q202K | 0.0342
Q202L | -0.163
L411C | 0.0617
V230T | -0.281
R97F | -0.0465
S343T | -0.0419
L40Q | 0.0733
A36K | -0.187
E45Q | -0.0405
R163T | -0.128
R163Q | -0.143
R163P | -0.887
R163D | -0.387
V261S | -0.503

Variant | 8OG:A repair function score
T324F | 0.00371
Q450I | -0.0986
D61I | -0.0219
A223R | 0.032
E375D | -0.434
Q386V | -0.383
S153A | 0.0766
R332E | -0.449
D91C | -0.0114
S294Y | -0.0109
S197C | -0.73
H172W | -0.21
D512V | 0.00239
E452I | -0.47
A461Q | -0.495
L516E | 0.0196
P442Q | 0.213
F250T | -0.65
K333A | 0.0254
C489H | 0.0276
C489I | -0.0718
Y428S | -0.915
Y152M | -0.3
W124G | -0.892

Variant | 8OG:A repair function score
V284G | -0.236
P299V | -0.0192
L360N | -1.27
S367F | -0.13
S367W | 0.00054
G353A | 0.00991
G353V | -0.123
V485S | 0.0216
K3D | -0.233
L183G | -0.0301
C278S | -1.07
C278T | -1.15
S54I | -0.00479
E79K | 0.0062
E79Y | -0.00762
A513L | -0.00457
W128K | -0.455
W128G | -0.819
S419N | -0.269
A245K | -0.0553
G401D | 0.0297
M496E | 0.00855
M496C | -0.00499
C262S | -1.38

Variant | 8OG:A repair function score
P317W | -0.205
G186S | -0.34
V427I | -0.18
F505T | 0.0174
S296M | -0.0125
Y56P | -0.0566
G434N | -0.392
L373D | -1.15
L373A | -0.596
G326C | -0.508
V47A | 0.101
V47H | 0.0522
F466N | -0.0913
F466R | -0.568
L501W | -0.00606
S71W | 0.000735
K80L | -0.278
L396R | -0.992
M108V | -1.11
D94W | -1
A391D | -0.378
A391F | 0.112
A391M | -0.279
P306K | -0.0963

Variant | 8OG:A repair function score
T130M | -0.278
T130R | -0.049
L423K | -0.269
V211T | -0.428
K481Q | -0.00252
S276G | -0.00134
S55W | -0.0142
V207Q | -0.868
V207H | -0.941
V207C | -0.542
L361C | -0.101
A115S | -0.0518
W85M | -0.682
W85C | -1.57
W85L | -0.917
M125G | -0.932
L430Q | -0.561
K493E | 0.0199
Q132C | -0.154
Q132T | 0.0372
G236N | 0.18
Q144T | -0.0237
Q144S | 0.0476
Q144E | -0.0907

Variant | 8OG:A repair function score
Q144W | -0.282
Q144N | -0.299
Q239P | -0.953
A519M | -0.00851
A519P | 0.0175
A519V | -0.0127
L237R | -0.738
M255R | -1.03
M255E | -0.876
M255N | -1.03
P273Y | -0.661
P273N | -0.903
A520L | -0.0269
A520H | -0.0164
L393T | -0.383
L393S | -0.405
F330A | -0.791
F330W | -0.017
L95N | -8.88e-05
R398P | -0.556
S226N | 0.261
S318A | 0.0892
L72G | -1.17
Q126A | 0.00568

Variant | 8OG:A repair function score
P84S | -0.324
P84Y | -0.697
P84G | -0.775
P129Q | -0.0447
Q159D | -0.824
S136C | -0.0713
V114R | -0.297
V114H | -0.935
K464N | -0.146
K464Q | -0.245
N210H | -0.833
N210D | -1.03
T440L | -0.194
S490F | -0.0204
S490K | 0.00805
P383K | -0.1
E92C | -0.0208
P338G | -0.0299
R506L | 0.00814
R506N | 0.00916
G497T | -0.00191
G497E | 0.00606
G193W | -0.832
